Target: T1, TF-RDR2-RRM (Arabidopsis thaliana, UniProt O82504 1-100)
T1 sequence: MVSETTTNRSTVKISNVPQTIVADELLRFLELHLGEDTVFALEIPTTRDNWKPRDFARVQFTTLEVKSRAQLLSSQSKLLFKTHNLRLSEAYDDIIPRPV
Assay: EMSA; protein 1, 3, 9 uM; RNA 2 uM; 2 mM Mg2+; 25 mM Hepes-KOH pH 7.6, 50 mM NaCl, 2 mM MgCl2, RNase inhibitor, 30 min room temperature; 6% native PAGE
Conditions: protein: recombinant; tags: N-terminal trigger factor (TF) fusion, pCold-TF; label: 5' Alexa647; single strand

B1: 37-nt ssRNA (ssRNA)
RNA: UCCGUCCGUCUGCUGUGGGUCUCCUUUCUCCUUCUUC
  binding result: binds
